Experimental data taken from patent US20240247080A1, “GLP1/GIP/NPY2 RECEPTOR TRIPLE AGONISTS” (Boehringer Ingelheim International GmbH, priority 2022, published 2024).
Starred links: 1 amine or outer side, 2 acyl side, 3 side chain; linkers in the order of their positions; H or OH if unused. Non-standard residues stand in square brackets, D forms with d. Groups on a side chain read outwards from the residue. No end group written: not given here. *: point of attachment. C18 diacid = O=C(O)CCCCCCCCCCCCCCCCC(=O)*; γGlu = O=C(O)[C@H](CCC(=O)[*:2])N[*:1]; AEEA = NCCOCCOCC(=O)O; Aib = CC(C)(N)C(=O)O

T1: GIP receptor (human (printed as hGIPR), UniProt P48546 22-466)
T1 sequence (looked up): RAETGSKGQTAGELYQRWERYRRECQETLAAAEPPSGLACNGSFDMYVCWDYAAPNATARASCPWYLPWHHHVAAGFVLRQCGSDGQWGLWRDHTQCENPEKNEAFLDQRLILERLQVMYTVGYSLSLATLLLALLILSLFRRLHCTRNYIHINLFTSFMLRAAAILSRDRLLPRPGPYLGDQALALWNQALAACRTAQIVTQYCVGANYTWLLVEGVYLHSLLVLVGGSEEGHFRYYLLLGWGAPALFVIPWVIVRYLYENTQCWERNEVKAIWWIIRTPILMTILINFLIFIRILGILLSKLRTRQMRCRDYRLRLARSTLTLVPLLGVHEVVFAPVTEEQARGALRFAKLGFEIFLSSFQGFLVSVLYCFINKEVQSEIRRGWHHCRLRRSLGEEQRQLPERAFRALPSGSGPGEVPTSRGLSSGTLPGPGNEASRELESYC

T2: NPY2 receptor (human (printed as hNPY2R), UniProt P49146 1-381)
T2 sequence (looked up): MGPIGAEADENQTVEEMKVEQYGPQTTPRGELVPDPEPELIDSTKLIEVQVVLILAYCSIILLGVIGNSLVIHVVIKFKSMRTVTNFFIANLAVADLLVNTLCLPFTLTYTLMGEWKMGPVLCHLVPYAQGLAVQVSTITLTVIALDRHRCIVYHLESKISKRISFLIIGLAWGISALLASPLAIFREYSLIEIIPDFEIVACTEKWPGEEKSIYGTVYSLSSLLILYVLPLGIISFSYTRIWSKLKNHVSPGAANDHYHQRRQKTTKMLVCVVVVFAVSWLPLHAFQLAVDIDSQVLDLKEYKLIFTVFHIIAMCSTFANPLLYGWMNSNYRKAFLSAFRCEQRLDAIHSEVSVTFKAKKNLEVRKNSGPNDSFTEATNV

T3: human GIP receptor (human, UniProt P48546 22-466)
T3 sequence (looked up): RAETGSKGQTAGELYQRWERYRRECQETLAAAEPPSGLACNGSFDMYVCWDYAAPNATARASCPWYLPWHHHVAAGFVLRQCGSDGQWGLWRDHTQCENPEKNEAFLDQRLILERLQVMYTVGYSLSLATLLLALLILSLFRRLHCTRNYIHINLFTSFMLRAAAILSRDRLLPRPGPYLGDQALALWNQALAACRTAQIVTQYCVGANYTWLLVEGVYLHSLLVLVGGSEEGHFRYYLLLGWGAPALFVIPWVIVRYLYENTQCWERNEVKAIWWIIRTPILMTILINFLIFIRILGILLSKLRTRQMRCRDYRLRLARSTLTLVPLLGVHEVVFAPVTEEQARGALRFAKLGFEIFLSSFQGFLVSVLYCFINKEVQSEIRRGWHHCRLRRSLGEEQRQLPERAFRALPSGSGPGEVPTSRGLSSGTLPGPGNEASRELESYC

T4: human neuropeptide Y2 (NPY2) receptor (human, UniProt P49146 1-381)
T4 sequence (looked up): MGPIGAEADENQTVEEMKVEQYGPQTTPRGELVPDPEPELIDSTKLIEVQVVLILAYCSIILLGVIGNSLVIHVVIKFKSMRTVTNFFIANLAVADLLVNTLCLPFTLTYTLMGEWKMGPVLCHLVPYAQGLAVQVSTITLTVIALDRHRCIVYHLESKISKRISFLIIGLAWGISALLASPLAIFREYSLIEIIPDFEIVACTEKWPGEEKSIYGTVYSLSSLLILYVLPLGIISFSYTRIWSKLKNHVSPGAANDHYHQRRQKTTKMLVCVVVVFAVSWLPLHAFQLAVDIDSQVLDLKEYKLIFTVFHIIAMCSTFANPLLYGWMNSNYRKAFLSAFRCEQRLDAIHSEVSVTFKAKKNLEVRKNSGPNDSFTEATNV


Columns and labels:
Test in all cases: cell-based or functional assay
GLP-1 receptor = GLP-1 receptor (human (printed as hGLP1R), UniProt P43220 24-463)
GIP receptor = target: T1, GIP receptor
NPY2 receptor = target: T2, NPY2 receptor
human GLP-1 receptor = human GLP-1 receptor (human, UniProt P43220 24-463)
human GIP receptor = target: T3, human GIP receptor
[1] = target: T4, human neuropeptide Y2 (NPY2) receptor

Row | Binder | EC50 hGLP1R 0.5% hP (CreLuc) (GLP-1 receptor) [nM] | EC50 hGLP1R 100% hP (CreLuc) (GLP-1 receptor) [nM] | EC50 hGIPR 0.5% hP (CreLuc) (GIP receptor) [nM] | EC50 hGIPR 100% hP (CreLuc) (GIP receptor) [nM] | EC50 hNPY2R 0.5% hP (CreLuc) (NPY2 receptor) [nM] | EC50 hNPY2R 100% hP (CreLuc) (NPY2 receptor) [nM] | EC50, CreLuc assay, 0.5% hP (human GLP-1 receptor) [nM] | EC50, CreLuc assay, 100% hP (human GLP-1 receptor) [nM] | EC50, CreLuc assay, 0.5% hP (human GIP receptor) [nM] | EC50, CreLuc assay, 100% hP (human GIP receptor) [nM] | EC50, CreLuc assay, 0.5% hP [1] [nM] | EC50, CreLuc assay, 100% hP [1] [nM]
1 | Y[Aib]EGTFTSDYSI[Aib]LEKQAQ[Aib]AFVEWLIK([AEEA-AEEA-γGlu-γGlu-γGlu-γGlu-C18 diacid])GGPSEPASLRHYYNWLTRQRY-NH2 (also: TFA salt) [Compound 256] | 0.18 | 4.59 | 0.23 | 1.56 | 10.9 | 27 |  |  |  |  |  | 
2 | Y[Aib]EGTFTSDYSI[Aib]LEKQAQ[Aib]AFVEWLIK([AEEA-AEEA-γGlu-γGlu-γGlu-C18 diacid])GGPEEGASLRHYYNWLTRQRY-NH2 (also: TFA salt) [Compound 248] | 0.25 | 8 | 0.12 | 0.79 | 18.7 | 48.4 |  |  |  |  |  | 
3 | Y[Aib]EGTFTSDYSI[Aib]LEKQAQ[Aib]AFVQWLIK([γGlu-γGlu-γGlu-γGlu-γGlu-γGlu-C18 diacid])GGPSEGASLRHYYNWLTRQRY-NH2 (also: TFA salt) [Compound 252] | 0.1 | 2.59 | 0.29 | 1.25 | 14.5 | 33.5 |  |  |  |  |  | 
4 | YXEGTFTSDYSIXLEKQAQXAFVQWLIKGGQRSYASLRHYYNWLTRQRY (Aib at 2, 13, 20; K28 side chain: C20DA-gGlu-gGlu-gGlu-gGlu-gGlu-gGlu-eLys; C-terminal NH2) [Compound 3] |  |  |  |  |  |  | 0.45 | 14.4 | 0.53 | 6.56 | 4.45 | 23
5 | YXEGTFTSDYSIXLEKQAQXAFVQWLIKGGPSEGASLRHYYNWLTRQRY (Aib at 2, 13, 20; K28 side chain carries C18DA-gGlu-gGlu-gGlu-gGlu-gGlu; C-terminal amide) [Compound 250] | 0.08 | 2.03 | 0.2 | 1.25 | 12.2 | 37.4 |  |  |  |  |  | 
6 | YXEGTFTSDYSIXLEKQAQXAFVQWLIKGGPSEGASLRHYYNWLTRQRY (Aib at 2, 13, 20; K28 side chain carries C18DA-E-E-E-E-E (SEQ ID NO: 636); C-terminal amide) [Compound 257] | 0.08 | 2.48 | 0.14 | 1.48 | 16.9 | 96.3 |  |  |  |  |  | 
7 | YXEGTFTSDYSIXLEKQAQXAFVQWLIKGGPSEGASLRHYYNWLTRQRY (Aib at 2, 13, 20; K28 side chain carries C18DA-E-E-E-E-E-E-eLys (SEQ ID NO: 643); C-terminal amide) [Compound 249] | 0.13 | 1.78 | 0.19 | 1.25 | 17.8 | 50 |  |  |  |  |  | 
8 | YXEGTFTSDYSIXLEKQAQXAFVQWLIKGGPSYYVSLRHYYNWLTRQRY (Aib at 2, 13, 20; K28 side chain: C20DA-gGlu-gGlu-gGlu-gGlu-gGlu-gGlu-eLys; C-terminal NH2) [Compound 19] |  |  |  |  |  |  | 0.5 | 10.2 | 0.61 | 6.5 | 9.41 | 19.3
9 | YXEGTFTSDYSIXLEKQAQXAFVEWLIKGGPSSGASLRHYYNWLTRQRY (Aib at 2, 13, 20; K28 side chain carries C18DA-gGlu-gGlu-gGlu-gGlu-gGlu; C-terminal amide) [Compound 253] | 0.08 | 0.74 | 0.24 | 0.64 | 13.4 | 39.3 |  |  |  |  |  | 
10 | YXEGTFTSDYSIXLEKQAQXAFVEWLIKGGPSSGASLRHYYNWLTRQRY (Aib at 2, 13, 20; DHis 39; DArg 46; DTyr 49; K28 side chain: C20DA-gGlu-gGlu-gGlu-gGlu-gGlu-gGlu-eLys; C-terminal NH2) [Compound 21] |  |  |  |  |  |  | 0.11 | 1.66 | 0.14 | 0.87 | > 99.9 | > 999
11 | YXEGTFTSDYSIXLEKQAQXEFVEWLIKGGPSEGASLRHYYNWLTRQRY (Aib at 2, 13, 20; K28 side chain carries C18DA-gGlu-gGlu-gGlu-gGlu-gGlu-gGlu-eLys; C-terminal amide) [Compound 255] | 0.34 | 7.31 | 0.46 | 1.23 | 17.3 | 40.9 |  |  |  |  |  | 
12 | Y[Aib]EGTFTSDYSI[Aib]LEKQAE[Aib]AFVEWLIK([AEEA-AEEA-γGlu-γGlu-γGlu-γGlu-C18 diacid])GGPSEGASLRHYYNWLTRQRY-NH2 (also: TFA salt) [Compound 251] | 0.49 | 7.16 | 0.16 | 0.98 | 20.6 | 48.7 |  |  |  |  |  | 
13 | Y[Aib]EGTFTSDYSI[Aib]LEKQAQ[Aib]AFVEWLIK([AEEA-AEEA-γGlu-γGlu-γGlu-γGlu-C18 diacid])GGPSSGASLRHYYNWLTRQRY-NH2 (also: TFA salt) [Compound 254] | 0.07 | 1.69 | 0.22 | 0.63 | 17.8 | 30.9 |  |  |  |  |  | 
14 | Y[Aib]EGTFTSDYSI[Aib]LEKQAQ[Aib]AFIEWLIK([γGlu-γGlu-γGlu-γGlu-C18 diacid])GGPSEGASLRHYYNWLTRQRY-NH2 (also: TFA salt) [Compound 247] | 0.11 | 2.2 | 0.26 | 1.57 | 11.9 | 64.7 |  |  |  |  |  | 
15 | YXEGTFTSDYSIXLEKQAQXAFVEWLIKGGPSSGASLRHYXNRXTRQRY (Aib at 2, 13, 20, 41, 44; K28 side chain: C20DA-gGlu-gGlu-gGlu-gGlu-gGlu-gGlu-eLys; C-terminal NH2) [Compound 18] |  |  |  |  |  |  | 0.12 | 1.94 | 0.36 | 1.98 | 85.7 | 224
16 | YXEGTFTSDYSIXLAAAAQXAFVEWLIKGGPSSGASLRHYYNWLTRQRY (Aib at 2, 13, 20; K28 side chain: C20DA-gGlu-gGlu-gGlu-gGlu-gGlu-gGlu-eLys; C-terminal NH2) [Compound 20] |  |  |  |  |  |  | 0.87 | 24.3 | 0.93 | 7.75 | 19.1 | 62
17 | Y[Aib]EGTFTSDYSI[Aib]LEKQAQ[Aib]AFIEWLIKGGPSEGASLRHYYNWLTRQRY-NH2 (not fully specified (residue 28); also: TFA salt) [Compound 258] | 0.17 | 2.52 | 0.16 | 1.23 | 22.3 | 72 |  |  |  |  |  | 
